Experimental data from PMC9726891, “SESAME-catalyzed H3T11 phosphorylation inhibits Dot1-catalyzed H3K79me3 to regulate autophagy and telomere silencing” (Nature Communications, 2022).
Where no end group is shown, it is not given here.

How the values were obtained:
[1] = molecular target: Set2 (UniProt P46995); test: biotinylated peptide pull-down, immunoblot; settings: reference: unmodified H3 (1-23) peptide; sites T11
[2] = molecular target: Dot1 (UniProt Q04089); test: biotinylated peptide pull-down, immunoblot; settings: reference: unmodified H3 (1-23) peptide; sites T11
[3] = molecular target: Set1 (UniProt P38827); test: biotinylated peptide pull-down, immunoblot; settings: reference: unmodified H3 (1-23) peptide; sites T11
[4] = molecular target: Dot1 (UniProt Q04089); test: Dot1-FLAG IP, anti-H3/H4 blot of nucleosomes; settings: reference: wild type H3; sites T11
[5] = molecular target: Dot1 (UniProt Q04089); test: H3-FLAG nucleosome IP, Dot1 blot; settings: reference: WT H3-FLAG; sites T11
[6] = molecular target: T1, purified endogenous SIR complex (Sir2-FLAG) (S. cerevisiae (endogenous in yeast), UniProt P06700 1-562; P06701 1-978; P11978 1-1358); test: pull-down; 1.0 µg biotinylated histone peptide incubated with 1 µg purified SIR complex (Sir2-FLAG) in 50 mM Tris-HCl pH 7.5, 250 mM NaCl, 0.1% NP-40, overnight at 4 °C; Streptavidin beads; immunoblot; settings: both partners purified
T1 construct: NAD-dependent histone deacetylase Sir2, S. cerevisiae; Sir3, S. cerevisiae; named as a subunit of the SIR complex in the introduction; Sir4, S. cerevisiae; also called silent information regulator complex; not shown: FLAG, C-terminal, kept; copies: + +
T1 sequence (P06700 whole entry, chain 1 of 3): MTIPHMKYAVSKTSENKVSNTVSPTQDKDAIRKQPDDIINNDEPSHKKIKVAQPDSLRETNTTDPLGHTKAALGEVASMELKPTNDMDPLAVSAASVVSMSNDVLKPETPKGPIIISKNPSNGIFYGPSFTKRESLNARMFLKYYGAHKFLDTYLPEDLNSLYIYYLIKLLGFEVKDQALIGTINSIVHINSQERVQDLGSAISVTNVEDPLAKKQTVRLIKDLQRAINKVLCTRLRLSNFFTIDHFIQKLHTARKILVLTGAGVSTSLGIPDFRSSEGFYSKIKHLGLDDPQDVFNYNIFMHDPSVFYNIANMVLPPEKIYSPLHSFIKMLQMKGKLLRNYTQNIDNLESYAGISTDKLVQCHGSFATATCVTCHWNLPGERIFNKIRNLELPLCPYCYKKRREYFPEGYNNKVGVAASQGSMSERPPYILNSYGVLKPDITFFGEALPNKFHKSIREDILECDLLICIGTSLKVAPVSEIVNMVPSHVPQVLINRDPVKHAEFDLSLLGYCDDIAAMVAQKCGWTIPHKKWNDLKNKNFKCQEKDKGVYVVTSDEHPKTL
T1 sequence (P06701 whole entry, chain 2 of 3): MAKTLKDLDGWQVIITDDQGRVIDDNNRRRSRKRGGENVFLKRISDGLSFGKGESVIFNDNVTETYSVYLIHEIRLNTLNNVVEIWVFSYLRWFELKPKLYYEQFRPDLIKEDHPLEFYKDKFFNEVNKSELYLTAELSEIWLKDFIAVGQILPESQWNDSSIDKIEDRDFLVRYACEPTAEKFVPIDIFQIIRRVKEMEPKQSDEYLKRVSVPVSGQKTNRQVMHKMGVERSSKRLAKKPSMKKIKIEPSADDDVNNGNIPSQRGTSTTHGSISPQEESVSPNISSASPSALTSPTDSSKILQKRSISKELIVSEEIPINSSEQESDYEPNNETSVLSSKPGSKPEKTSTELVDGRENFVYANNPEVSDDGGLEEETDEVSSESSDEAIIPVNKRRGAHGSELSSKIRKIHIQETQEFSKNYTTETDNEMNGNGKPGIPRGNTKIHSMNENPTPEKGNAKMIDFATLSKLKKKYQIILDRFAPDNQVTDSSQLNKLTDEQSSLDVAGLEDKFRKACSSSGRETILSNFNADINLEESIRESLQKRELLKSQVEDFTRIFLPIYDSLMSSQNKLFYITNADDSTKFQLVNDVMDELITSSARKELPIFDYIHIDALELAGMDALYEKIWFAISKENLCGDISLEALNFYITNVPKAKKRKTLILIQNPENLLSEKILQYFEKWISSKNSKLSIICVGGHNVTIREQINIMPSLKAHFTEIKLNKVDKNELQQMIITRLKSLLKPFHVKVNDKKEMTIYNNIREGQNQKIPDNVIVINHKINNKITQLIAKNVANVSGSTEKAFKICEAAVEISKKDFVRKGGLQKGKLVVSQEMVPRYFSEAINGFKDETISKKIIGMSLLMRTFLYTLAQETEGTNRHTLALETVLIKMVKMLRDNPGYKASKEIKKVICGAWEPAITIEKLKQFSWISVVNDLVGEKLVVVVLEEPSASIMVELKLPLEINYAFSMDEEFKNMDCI
T1 sequence (P11978 whole entry, chain 3 of 3): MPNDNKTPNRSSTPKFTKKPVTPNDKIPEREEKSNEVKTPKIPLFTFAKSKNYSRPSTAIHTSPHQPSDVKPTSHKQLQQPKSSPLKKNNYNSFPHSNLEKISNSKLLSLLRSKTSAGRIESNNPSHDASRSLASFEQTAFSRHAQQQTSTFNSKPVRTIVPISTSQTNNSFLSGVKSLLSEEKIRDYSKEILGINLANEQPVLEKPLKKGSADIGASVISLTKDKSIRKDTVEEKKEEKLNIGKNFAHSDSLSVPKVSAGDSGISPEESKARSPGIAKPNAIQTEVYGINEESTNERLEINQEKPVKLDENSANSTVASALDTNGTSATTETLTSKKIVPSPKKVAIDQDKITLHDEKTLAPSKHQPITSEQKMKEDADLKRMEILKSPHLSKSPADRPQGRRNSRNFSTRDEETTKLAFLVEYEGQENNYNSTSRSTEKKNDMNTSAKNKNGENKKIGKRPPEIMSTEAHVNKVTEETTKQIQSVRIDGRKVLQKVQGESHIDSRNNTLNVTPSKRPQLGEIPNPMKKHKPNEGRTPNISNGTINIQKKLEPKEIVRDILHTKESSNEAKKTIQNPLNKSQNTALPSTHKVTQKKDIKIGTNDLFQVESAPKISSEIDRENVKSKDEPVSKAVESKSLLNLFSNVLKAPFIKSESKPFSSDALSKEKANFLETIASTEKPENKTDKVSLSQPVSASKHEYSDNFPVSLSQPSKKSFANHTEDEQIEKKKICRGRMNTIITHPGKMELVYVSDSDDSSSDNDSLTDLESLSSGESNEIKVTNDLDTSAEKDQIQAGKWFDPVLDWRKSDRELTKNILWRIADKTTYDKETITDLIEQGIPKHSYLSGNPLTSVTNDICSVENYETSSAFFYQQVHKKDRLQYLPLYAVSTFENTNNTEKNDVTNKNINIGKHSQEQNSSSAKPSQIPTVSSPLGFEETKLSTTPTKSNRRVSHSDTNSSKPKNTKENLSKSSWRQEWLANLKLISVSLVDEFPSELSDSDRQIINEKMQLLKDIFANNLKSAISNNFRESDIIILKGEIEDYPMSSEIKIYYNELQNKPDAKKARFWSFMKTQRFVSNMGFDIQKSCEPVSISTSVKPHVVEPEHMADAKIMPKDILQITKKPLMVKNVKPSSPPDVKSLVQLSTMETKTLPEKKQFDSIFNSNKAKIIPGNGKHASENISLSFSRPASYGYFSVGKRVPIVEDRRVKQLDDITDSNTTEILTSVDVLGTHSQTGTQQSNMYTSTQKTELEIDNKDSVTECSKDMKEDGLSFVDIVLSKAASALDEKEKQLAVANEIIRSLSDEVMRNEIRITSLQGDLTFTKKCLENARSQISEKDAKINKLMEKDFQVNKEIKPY

Molecule: histone H3 1-23 (from UniProt P61830) H3pT11 (1-23) peptide
- binding against the reference [1]: same
- binding against the reference [2]: weaker
- binding against the reference [3]: same

Molecule: histone H3 (from UniProt P61830) H3T11A
- binding against the reference [4]: stronger

Molecule: histone H3 (from UniProt P61830) H3T11A-FLAG
- binding against the reference [5]: stronger

B1: Unmodified H3 (72–85) peptide (peptide)
peptide: REIAQDFKTDLRFQ
modifications: also: biotin (position not given here)
notes: histone H3 residues 72-85; also called unmodified H3 peptide; source: synthetic peptide (biotinylated histone peptide)
- binding result [6]: binds
